Assay results published in article PMC4022731 (PLoS Pathogens, 2014).

Target: Flag-tagged HCMV gp68 expressed by recombinant vaccinia virus (human cytomegalovirus, UniProt P16739)
Assay: co-IP
Conditions: one partner purified

Flag-tagged HCMV gp68 expressed by recombinant vaccinia virus, sequence (P16739 24-345): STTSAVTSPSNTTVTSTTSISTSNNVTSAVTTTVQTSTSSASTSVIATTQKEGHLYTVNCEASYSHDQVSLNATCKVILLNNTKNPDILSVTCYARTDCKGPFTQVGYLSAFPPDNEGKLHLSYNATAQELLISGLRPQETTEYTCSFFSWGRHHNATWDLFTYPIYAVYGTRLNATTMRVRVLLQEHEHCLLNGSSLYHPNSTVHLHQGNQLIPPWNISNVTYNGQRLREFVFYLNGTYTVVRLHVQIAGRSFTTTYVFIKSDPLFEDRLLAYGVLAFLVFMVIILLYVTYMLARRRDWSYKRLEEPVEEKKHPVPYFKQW

B1: palivizumab (antibody, V domains shown)
VH: QVTLRESGPALVKPTQTLTLTCTFSGFSLSTSGMSVGWIRQPPGKALEWLADIWWDDKKDYNPSLKSRLTISKDTSKNQVVLKVTNMDPADTATYYCARSMITNWYFDVWGAGTTVTVSS
VL: DIQMTQSPSTLSASVGDRVTITCKCQLSVGYMHWYQQKPGKAPKLLIYDTSKLASGVPSRFSGSGSGTEFTLTISSLQPDDFATYYCFQGSGYPFTFGGGTKLEIK
notes: also called IgG1 isotype control antibody; source: bought: MedImmune
B1: binds.
